For this data set, the target named is Influenza A polymerase heterotrimer (PA-PB1-PB2) (Influenza A virus A/little …, UniProt H6QM92;H6QM91;H6QM90 1-713;1-756;1-760). Description: crystal structure.

The text below walks through data of paper PMC5778463.

As for AAUCUAUAAUAG (ssRNA, 5' m7Gppp cap) [capped 12-mer RNA primer], the binding result is “binds”.

B1: vRNA promoter (5' nt 1-16 / 3' nt 1-18) (structured_RNA)
RNA 1: AGUAGUAACAAGAGGG
RNA 2: UAUACCUCUGCUUCUGCU
modifications: 5' phosphate on strand 1
With B1, the binding result is reported as “binds”.
